# Experimental data as given in patent US20200024330A1.
# B1: PGT-123 (antibody, V domains shown)
# VH: QLHLQESGPGLVKPPETLSLTCSVSGASINDAYWSWIRQSPGKRPEWVGYVHHSGDTNYNPSLKRRVTFSLDTAKNEVSLKLVDLTAADSATYFCARALHGKRIYGIVALGELFTYFYMDVWGKGTAVTVSS
# VL: SSMSVSPGETAKISCGKESIGSRAVQWYQQKPGQPPSLIIYNNQDRPAGVPERFSASPDFRPGTTATLTITNVDAEDEADYYCHIYDARGGTNWVFDRGTTLTVL
# B2: PGT-125 (antibody, V domains shown)
# VH: QSQLQESGPRLVEASETLSLTCNVSGESTGACTYFWGWVRQAPGKGLEWIGSLSHCQSFWGSGWTFHNPSLKSRLTISLDTPKNQVFLKLTSLTAADTATYYCARFDGEVLVYNHWPKPAWVDLWGRGIPVTVSS
# VL: QSALTQPPSASGSPGQSITISCNGTATNFVSWYQQFPDKAPKLIIFGVDKRPPGVPDRFSGSRSGTTASLTVSRLQTDDEAVYYCGSLVGNWDVIFGGGTTLTVL
# Experiments:
# Experiment in all cases: cell-based or functional assay
# [1] = target: Env of the clade F HIV-1 pseudoviruses of the cross-clade 162-pseudovirus panel (n = 15)
# [2] = target: HIV-1 JR-CSF Env R304A (HIV-1 JR-CSF) (UniProt P20871)
# [3] = target: HIV-1 Env of isolate MGRM-C-026 (HIV-1)
# [4] = target: HIV-1 92BR020 envelope glycoprotein (Env) (HIV-1)
# [5] = target: HIV-1 Env of isolate VLGCA1 (HIV-1)
# [6] = target: HIV-1 Env of isolate 92TH021 (HIV-1)
# [7] = target: HIV-1 JR-CSF Env L416A (HIV-1 (isolate JR-CSF)) (UniProt P20871)
# [8] = target: HIV-1 JR-CSF Env T320A (HIV-1 isolate JR-CSF) (UniProt P20871)
# [9] = target: HIV-1 JR-CSF Env F210A (HIV-1 JR-CSF) (UniProt P20871)
# [10] = target: HIV-1 JR-CSF Env I420A (HIV-1 (isolate JR-CSF)) (UniProt P20871)
# [11] = target: HIV-1 JR-CSF Env I307A (HIV-1 JR-CSF) (UniProt P20871)
# [12] = target: HIV-1 JR-CSF Env Q422A (HIV-1 (isolate JR-CSF)) (UniProt P20871)
# [13] = target: HIV-1 JR-CSF Env S306A (HIV-1 JR-CSF) (UniProt P20871)
# [14] = target: HIV-1 JR-CSF Env S393A (HIV-1 (isolate JR-CSF)) (UniProt P20871)
# [15] = target: HIV-1 92RW020 envelope glycoprotein (Env) (HIV-1)
# [16] = target: HIV-1 JR-CSF Env I423A (HIV-1 (isolate JR-CSF)) (UniProt P20871)
# [17] = target: HIV-1 Env of isolate MGRM-AE-001 (HIV-1)
# [18] = target: HIV-1 JR-CSF Env R350A (HIV-1 isolate JR-CSF) (UniProt P20871)
# [19] = target: HIV-1 JR-CSF Env N355A (HIV-1 isolate JR-CSF) (UniProt P20871)
# [20] = target: HIV-1 MGRM-C-028 envelope glycoprotein (Env) (HIV-1)
# [21] = target: HIV-1 Env of isolate 93UG077 (HIV-1)
# [22] = target: HIV-1 JR-CSF Env W395A (HIV-1 (isolate JR-CSF)) (UniProt P20871)
# [23] = target: HIV-1 JR-CSF Env I326A (HIV-1 isolate JR-CSF) (UniProt P20871)
# [24] = target: HIV-1 JR-CSF Env N396A (HIV-1 (isolate JR-CSF)) (UniProt P20871)
# [25] = target: HIV-1 APV13 envelope glycoprotein (Env) (HIV-1)
# [26] = target: HIV-1 JR-CSF Env T319A (HIV-1 isolate JR-CSF) (UniProt P20871)
# [27] = target: HIV-1 APV6 envelope glycoprotein (Env) (HIV-1)
# [28] = target: HIV-1 Env of isolate JR-CSF (HIV-1) (UniProt P20871)
# [29] = target: Env of the clade B HIV-1 pseudoviruses of the cross-clade 162-pseudovirus panel (n = 31)
# [30] = target: HIV-1 Env of isolate MGRM-A-008 (HIV-1)
# [31] = target: HIV-1 Env of isolate MGRM-A-001 (HIV-1)
# [32] = target: HIV-1 JR-CSF Env T413A (HIV-1 (isolate JR-CSF)) (UniProt P20871)
# [33] = target: Env of the clade AG HIV-1 pseudoviruses of the cross-clade 162-pseudovirus panel (n = 10)
# [34] = target: Env of all HIV-1 pseudoviruses of the cross-clade 162-pseudovirus panel (n = 162)
# [35] = target: HIV-1 JR-CSF Env N301A (HIV-1 JR-CSF) (UniProt P20871)
# [36] = target: HIV-1 Env of isolate 92WR020 (HIV-1)
# [37] = target: HIV-1 JR-CSF Env I323A (HIV-1 isolate JR-CSF) (UniProt P20871)
# [38] = target: HIV-1 JR-CSF Env N262A (HIV-1 JR-CSF) (UniProt P20871)
# [39] = target: HIV-1 JR-CSF Env S199A (HIV-1 JR-CSF) (UniProt P20871)
# [40] = target: HIV-1 JR-CSF Env H330A (HIV-1 isolate JR-CSF) (UniProt P20871)
# [41] = target: HIV-1 JR-CSF Env N392Q (HIV-1 (isolate JR-CSF)) (UniProt P20871)
# [42] = target: HIV-1 JR-CSF Env K421A (HIV-1 (isolate JR-CSF)) (UniProt P20871)
binder,measurement,setting,value
B1,Median IC50 against viruses neutralized with an IC50 <50 µg/ml,[1],0.09 µg/mL
same,Fold IC50 increase relative to wild-type,[2],0.7 fold
same,Primary Neutralization Index (B cell culture well 4858 P8),[3],33.8
same,IC50 neutralization,[4],0.013 µg/mL
same,"IC50 (µg/mL), pseudovirus neutralization",[5],> 50 µg/mL
same,"IC50 (µg/mL), pseudovirus neutralization",[6],> 50 µg/mL
same,Fold IC50 increase relative to wild-type,[7],0.9 fold
same,Fold IC50 increase relative to wild-type,[8],0.7 fold
same,Fold IC50 increase relative to wild-type,[9],2.8 fold
same,Fold IC50 increase relative to wild-type,[10],3.2 fold
same,Fold IC50 increase relative to wild-type,[11],5.9 fold
same,Fold IC50 increase relative to wild-type,[12],0.8 fold
same,Fold IC50 increase relative to wild-type,[13],0.5 fold
same,Fold IC50 increase relative to wild-type,[14],0.6 fold
same,IC50 neutralization,[15],0.0038 µg/mL
same,Fold IC50 increase relative to wild-type,[16],1.5 fold
same,"IC50 (µg/mL), pseudovirus neutralization",[17],> 50 µg/mL
same,Fold IC50 increase relative to wild-type,[18],0.5 fold
same,Fold IC50 increase relative to wild-type,[19],0.5 fold
same,IC50 neutralization,[20],0.443 µg/mL
same,"IC50 (µg/mL), pseudovirus neutralization",[21],0.028 µg/mL
same,Fold IC50 increase relative to wild-type,[22],0.4 fold
same,Fold IC50 increase relative to wild-type,[23],0.4 fold
same,Fold IC50 increase relative to wild-type,[24],1.2 fold
same,IC50 neutralization,[25],0.222 µg/mL
same,Fold IC50 increase relative to wild-type,[26],0.4 fold
same,IC50 neutralization,[27],0.0328 µg/mL
same,Primary Neutralization Index (B cell culture well 4858 P8),[28],1.6
same,Median IC50 against viruses neutralized with an IC50 <50 µg/ml,[29],0.02 µg/mL
same,"IC50 (µg/mL), pseudovirus neutralization",[30],> 50 µg/mL
same,"IC50 (µg/mL), pseudovirus neutralization",[31],> 50 µg/mL
same,Fold IC50 increase relative to wild-type,[32],0.4 fold
same,Median IC50 against viruses neutralized with an IC50 <50 µg/ml,[33],0.61 µg/mL
same,Median IC50 against viruses neutralized with an IC50 <50 µg/ml,[34],0.03 µg/mL
same,Fold IC50 increase relative to wild-type,[35],1 fold
same,"IC50 (µg/mL), pseudovirus neutralization",[36],0.002 µg/mL
same,Fold IC50 increase relative to wild-type,[37],1 fold
same,Fold IC50 increase relative to wild-type,[38],0.5 fold
same,Fold IC50 increase relative to wild-type,[39],1.1 fold
same,Fold IC50 increase relative to wild-type,[40],0.3 fold
same,Fold IC50 increase relative to wild-type,[41],1 fold
same,Fold IC50 increase relative to wild-type,[42],0.9 fold
B2,Median IC50 against viruses neutralized with an IC50 <50 µg/ml,[1],0.04 µg/mL
same,Fold IC50 increase relative to wild-type,[2],1.9 fold
same,Polyclonal Transfectant Neutralization Index (well 5123 A6),[3],88.3
same,Primary Neutralization Index (B cell culture well 5123 A6),[3],512
same,IC50 neutralization,[4],0.0214 µg/mL
same,"IC50 (µg/mL), pseudovirus neutralization",[5],0.078 µg/mL
same,"IC50 (µg/mL), pseudovirus neutralization",[6],0.006 µg/mL
same,Polyclonal Transfectant Neutralization Index (well 5123 A6),[6],50.6
same,Primary Neutralization Index (B cell culture well 5123 A6),[6],133
same,Fold IC50 increase relative to wild-type,[7],0.8 fold
same,Fold IC50 increase relative to wild-type,[8],0.8 fold
same,Fold IC50 increase relative to wild-type,[9],1.4 fold
same,Fold IC50 increase relative to wild-type,[10],1.1 fold
same,Fold IC50 increase relative to wild-type,[11],5 fold
same,Fold IC50 increase relative to wild-type,[12],1.2 fold
same,Fold IC50 increase relative to wild-type,[13],1.2 fold
same,Fold IC50 increase relative to wild-type,[14],0.5 fold
same,IC50 neutralization,[15],0.0028 µg/mL
same,Fold IC50 increase relative to wild-type,[16],5 fold
same,"IC50 (µg/mL), pseudovirus neutralization",[17],2.95 µg/mL
same,Fold IC50 increase relative to wild-type,[18],0.6 fold
same,Fold IC50 increase relative to wild-type,[19],1.2 fold
same,IC50 neutralization,[20],5.78 µg/mL
same,"IC50 (µg/mL), pseudovirus neutralization",[21],0.012 µg/mL
same,Fold IC50 increase relative to wild-type,[22],0.9 fold
same,Fold IC50 increase relative to wild-type,[23],0.9 fold
same,Fold IC50 increase relative to wild-type,[24],1.6 fold
same,IC50 neutralization,[25],0.0128 µg/mL
same,Fold IC50 increase relative to wild-type,[26],1.1 fold
same,IC50 neutralization,[27],0.0359 µg/mL
same,Polyclonal Transfectant Neutralization Index (well 5123 A6),[28],119
same,Primary Neutralization Index (B cell culture well 5123 A6),[28],1730
same,Median IC50 against viruses neutralized with an IC50 <50 µg/ml,[29],0.02 µg/mL
same,"IC50 (µg/mL), pseudovirus neutralization",[30],> 50 µg/mL
same,"IC50 (µg/mL), pseudovirus neutralization",[31],12.4 µg/mL
same,Fold IC50 increase relative to wild-type,[32],0.5 fold
same,Median IC50 against viruses neutralized with an IC50 <50 µg/ml,[33],0.01 µg/mL
same,Median IC50 against viruses neutralized with an IC50 <50 µg/ml,[34],0.04 µg/mL
same,Fold IC50 increase relative to wild-type,[35],213 fold
same,"IC50 (µg/mL), pseudovirus neutralization",[36],0.004 µg/mL
same,Fold IC50 increase relative to wild-type,[37],0.9 fold
same,Fold IC50 increase relative to wild-type,[38],0.9 fold
same,Fold IC50 increase relative to wild-type,[39],0.7 fold
same,Fold IC50 increase relative to wild-type,[40],0.7 fold
same,Fold IC50 increase relative to wild-type,[41],1.2 fold
same,Fold IC50 increase relative to wild-type,[42],1.2 fold
